Reference: patent US20070004634A1 (published 2007)
Each block holds one binder with its values, some of them ahead of it.

How the values were obtained:
[1] = molecular target: soluble human insulin mini-receptor (mIR) (human, UniProt P06213-2 28-746, limits assumed); test: FP vs FITC-RP9 on mIR
[2] = molecular target: T1, human insulin receptor (HIR) (human, UniProt P06213-2 28-1370, limits assumed); test: 125I-insulin competition, solubilized HIR
T1 construct: detergent-solubilized receptor
T1 sequence (P06213 other isoform, or with tags, fused parts or gaps limits assumed): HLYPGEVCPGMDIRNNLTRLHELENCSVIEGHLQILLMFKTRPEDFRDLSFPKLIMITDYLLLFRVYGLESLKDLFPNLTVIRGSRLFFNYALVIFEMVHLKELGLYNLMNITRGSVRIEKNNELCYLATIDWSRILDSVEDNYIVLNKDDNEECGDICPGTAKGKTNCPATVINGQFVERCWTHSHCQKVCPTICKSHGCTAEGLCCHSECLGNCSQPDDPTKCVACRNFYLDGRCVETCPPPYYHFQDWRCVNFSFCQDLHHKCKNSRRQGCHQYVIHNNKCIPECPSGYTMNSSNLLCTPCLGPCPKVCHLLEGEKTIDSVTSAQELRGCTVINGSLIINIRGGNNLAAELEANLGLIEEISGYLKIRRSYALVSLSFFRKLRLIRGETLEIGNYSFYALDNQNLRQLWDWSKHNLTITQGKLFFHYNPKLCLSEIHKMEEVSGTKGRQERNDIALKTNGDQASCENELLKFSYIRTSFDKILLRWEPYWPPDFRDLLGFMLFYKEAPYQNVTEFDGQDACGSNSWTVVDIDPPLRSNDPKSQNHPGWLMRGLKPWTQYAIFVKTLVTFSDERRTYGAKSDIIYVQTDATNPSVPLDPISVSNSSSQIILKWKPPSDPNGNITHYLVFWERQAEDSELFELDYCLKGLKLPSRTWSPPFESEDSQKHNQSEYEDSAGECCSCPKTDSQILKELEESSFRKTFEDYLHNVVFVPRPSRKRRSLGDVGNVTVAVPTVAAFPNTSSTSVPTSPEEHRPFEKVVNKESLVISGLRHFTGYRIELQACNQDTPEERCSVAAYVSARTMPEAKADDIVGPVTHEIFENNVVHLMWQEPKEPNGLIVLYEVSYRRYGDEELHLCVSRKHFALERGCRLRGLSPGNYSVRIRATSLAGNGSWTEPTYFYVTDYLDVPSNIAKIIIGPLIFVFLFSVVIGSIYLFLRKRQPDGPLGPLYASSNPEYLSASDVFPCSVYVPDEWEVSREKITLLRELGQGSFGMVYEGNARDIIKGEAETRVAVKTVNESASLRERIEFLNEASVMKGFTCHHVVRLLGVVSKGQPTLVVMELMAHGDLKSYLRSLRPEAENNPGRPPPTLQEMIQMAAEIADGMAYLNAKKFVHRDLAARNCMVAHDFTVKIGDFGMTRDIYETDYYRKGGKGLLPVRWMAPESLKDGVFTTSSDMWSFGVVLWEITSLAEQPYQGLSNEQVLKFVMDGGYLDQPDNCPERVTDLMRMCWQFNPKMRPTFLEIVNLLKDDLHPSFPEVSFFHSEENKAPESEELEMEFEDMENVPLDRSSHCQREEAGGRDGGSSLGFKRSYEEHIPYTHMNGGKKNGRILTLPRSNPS

IC50 [1]: 770 nM
B1: H2C (peptide)
chain: FHENFYDWFVRQVSKK

Kd [2]: 1400 nM
B2: S257 (peptide)
peptide: RWPNFYGYFESLLTHFS
